From publication PMC4834876 (Journal of molecular biology, 2016) come the findings set out here.

The target in this test is F-actin (filamentous actin) from rabbit muscle (rabbit, UniProt P68135 1-377). Briefly: co-sedimentation.

B1: EB1_(248), activated fragment of EB1 lacking the auto-inhibitory acidic tail (domain or fragment)
chain: MAVNVYSTSVTSDNLSRHDMLAWINESLQLNLTKIEQLCSGAAYCQFMDMLFPGSIALKKVKFQAKLEHEYIQNFKILQAGFKRMGVDKIIPVDKLVKGKFQDNFEFVQWFKKFFDANYDGKDYDPVAARQGQETAVAPSLVAPALNKPKKPLTSSSAAPQRPISTQRTAAAPKAGPGVVRKNPGVGNGDDEAAELMQQVNVLKLTVEDLEKERDFYFGKLRNIELICQENEGENDPVLQRIVDILYA
Usually Kd stands for the free concentration of one partner at which half of the binding sites on the other are occupied at equilibrium, for simple one-to-one binding. Molecule B1 registered a Kd of roughly 7 µM.
